Series [1] addresses T1, soluble recombinant human CD39 protein (Homo sapiens, UniProt P49961).
T1 construct: made in house; host or cells: CHO cells
T1 sequence (P49961 with tags, fused parts or gaps): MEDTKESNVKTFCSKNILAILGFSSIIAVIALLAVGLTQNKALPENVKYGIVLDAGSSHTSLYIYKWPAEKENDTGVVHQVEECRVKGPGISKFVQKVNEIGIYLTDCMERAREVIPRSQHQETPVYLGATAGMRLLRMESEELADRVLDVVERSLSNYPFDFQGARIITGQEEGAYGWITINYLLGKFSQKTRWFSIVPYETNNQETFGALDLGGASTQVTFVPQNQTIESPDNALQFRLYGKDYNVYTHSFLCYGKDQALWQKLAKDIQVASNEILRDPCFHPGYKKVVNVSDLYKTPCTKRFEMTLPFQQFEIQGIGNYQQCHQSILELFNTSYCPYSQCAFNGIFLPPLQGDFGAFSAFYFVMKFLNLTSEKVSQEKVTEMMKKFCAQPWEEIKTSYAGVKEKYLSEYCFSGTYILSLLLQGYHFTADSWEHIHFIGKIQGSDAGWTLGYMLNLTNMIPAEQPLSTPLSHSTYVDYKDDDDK
Description: Inhibition of the enzymatic activity of soluble CD39 (Cell Titer Glo, cell-free). It counts as biochemical. The following applies: humanized variants. As to the method:
(§1) The inhibition by antibodies of the enzymatic activity of soluble CD39 protein produced was evaluated using Cell Titer GIo™ (Promega, reference G7571) that allows assessment of ATP hydrolysis through use of a reagent that generates a luminescent signal proportional to the amount of ATP present. In this way, inhibition of the soluble-CD39-meidated ATP hydrolysis can be assessed. Briefly, dose ranges of anti-CD39 antibodies from 100 μg/ml to […] were incubated with 400 ng/ml of soluble recombinant human CD39 protein having the amino acid sequence described in the Methods section (SEQ ID NO: 44), for 1 h at 37° C. 20 μM ATP was added to the plates for 30 additional minutes at 37° C. before addition of CTG (Cell Titer Glo) reagent. Emitted light was quantified using an Enspire™ luminometer after a short incubation period of 5 min in the dark. Anti-CD39 antibody efficacy was determined by comparing emitted light in presence of antibody with ATP alone (maximal light emission) and ATP together with soluble CD39 protein (minimal light emission).

Series [2] has as its target T2, CD39 expressed by Ramos human lymphoma cells (Homo sapiens, UniProt P49961).
T2 construct: cells that endogenously express CD39 at their surface; host or cells: Ramos
T2 sequence (P49961 1-510): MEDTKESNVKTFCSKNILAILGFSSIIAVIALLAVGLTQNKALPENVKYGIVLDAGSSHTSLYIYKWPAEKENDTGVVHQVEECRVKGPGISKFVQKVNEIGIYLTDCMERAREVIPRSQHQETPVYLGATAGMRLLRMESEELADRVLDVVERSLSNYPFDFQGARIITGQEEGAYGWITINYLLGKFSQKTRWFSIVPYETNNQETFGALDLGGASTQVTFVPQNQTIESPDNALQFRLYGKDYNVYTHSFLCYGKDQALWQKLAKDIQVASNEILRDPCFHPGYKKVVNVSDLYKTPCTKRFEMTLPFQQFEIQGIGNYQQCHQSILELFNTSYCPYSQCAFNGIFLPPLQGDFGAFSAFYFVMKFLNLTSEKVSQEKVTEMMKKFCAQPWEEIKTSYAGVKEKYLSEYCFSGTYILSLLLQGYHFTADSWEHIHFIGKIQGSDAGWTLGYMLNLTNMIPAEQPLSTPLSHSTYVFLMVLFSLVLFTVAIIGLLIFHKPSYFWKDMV
As to the kind of experiment: Inhibition of the enzymatic activity of cellular CD39 in Ramos cells. To be noted: Ramos cells. Format: cell-based. As to the method:
(§2) The inhibition of the CD39 enzymatic activity in CD39-expressing cells by antibodies was evaluated using Cell Titer GIo™ (Promega, reference G7571) that allows assessment of ATP hydrolysis through use of a reagent that generates a luminescent signal proportional to the amount of ATP present. The assay was thus designed to permit assessment of the inhibition of ATP hydrolyzed by CD39 in the cell culture supernatant. Briefly, 5×10^4 Ramos human lymphoma cells, 5×10^3 human CD39−, cynomolgus CD39—and mouse CD39− expressing CHO cells, were incubated 1 hour at 37° C. with anti-CD39 antibodies from 30 μg/ml to 5×10^−4 μg/ml. Cells were then incubated with 20 μM ATP for 1 additional hour at 37° C. Plates were centrifuged for 2 min at 400 g and 50 μl cell supernatant are transferred in a luminescence microplate (white wells). 50 μl CellTiter-Glo™ Reagent (CTG) was added to the supernatant and emitted light was quantified after a 5 min incubation in the dark using a Enspire™ luminometer. Anti-CD39 antibody efficacy was determined by comparing emitted light in presence of antibody with ATP alone (maximal light emission) and ATP together with cells (minimal light emission).

Series [3] concerns the target T3, membrane-bound CD39 in Mino tumor cells (Homo sapiens, UniProt P49961).
T3 construct: endogenous in cells; host or cells: Mino
T3 sequence (P49961 1-510): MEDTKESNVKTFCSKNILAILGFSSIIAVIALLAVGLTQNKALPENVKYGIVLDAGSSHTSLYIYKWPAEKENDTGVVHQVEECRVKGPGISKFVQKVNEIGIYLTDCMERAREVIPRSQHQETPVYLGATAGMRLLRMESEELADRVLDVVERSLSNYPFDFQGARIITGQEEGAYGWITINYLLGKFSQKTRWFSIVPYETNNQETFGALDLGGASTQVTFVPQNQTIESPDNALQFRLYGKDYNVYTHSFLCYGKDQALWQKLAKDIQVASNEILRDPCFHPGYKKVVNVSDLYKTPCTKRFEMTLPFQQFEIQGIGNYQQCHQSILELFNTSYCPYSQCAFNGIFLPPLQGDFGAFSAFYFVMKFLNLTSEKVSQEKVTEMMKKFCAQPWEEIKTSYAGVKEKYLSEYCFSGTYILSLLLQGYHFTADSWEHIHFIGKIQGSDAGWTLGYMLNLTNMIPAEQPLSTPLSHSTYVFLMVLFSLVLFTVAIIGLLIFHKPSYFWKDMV
As to the kind of experiment: Inhibition of the enzymatic activity of cellular CD39 in Mino cells. It counts as cell-based. As to the method: as §2
Antibodies were tested for potency in inhibition of ATPase activity in cell lines that express membrane-bound CD39. […]

Series [4] addresses T4, human Ramos lymphoma cells (CD39) (Homo sapiens, UniProt P49961).
T4 construct: cells that endogenously express CD39 at their surface; host or cells: Ramos
T4 sequence (P49961 1-510): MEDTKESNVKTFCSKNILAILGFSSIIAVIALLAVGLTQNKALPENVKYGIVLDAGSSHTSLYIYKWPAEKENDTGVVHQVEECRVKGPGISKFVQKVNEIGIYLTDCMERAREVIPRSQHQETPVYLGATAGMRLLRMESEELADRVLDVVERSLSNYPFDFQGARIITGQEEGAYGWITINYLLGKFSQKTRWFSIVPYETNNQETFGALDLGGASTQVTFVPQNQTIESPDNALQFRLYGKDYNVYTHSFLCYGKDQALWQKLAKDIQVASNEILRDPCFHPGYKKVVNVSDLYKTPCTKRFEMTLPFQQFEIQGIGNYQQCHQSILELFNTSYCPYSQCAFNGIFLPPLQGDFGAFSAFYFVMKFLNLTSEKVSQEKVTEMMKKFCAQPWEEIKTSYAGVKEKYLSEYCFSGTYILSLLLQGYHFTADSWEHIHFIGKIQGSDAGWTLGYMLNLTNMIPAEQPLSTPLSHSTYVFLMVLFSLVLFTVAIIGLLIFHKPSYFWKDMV
As to the kind of experiment: Antibody titration on Ramos cells by flow cytometry. It counts as binding. The following applies: comparison. As to the method:
Antibody I-394 was tested in two repeated experiments for binding to CHO cells expressing human CD39, CHO cells expressing cynomolgus (Macaca fascicularis) CD39, CHO cells expressing murine CD39, and human Ramos lymphoma cells (ATCC™, reference CRL-1596). Cells were incubated with various concentration of unlabeled anti-CD39 antibody from 30 μg/ml to 5×10^−4 μg/ml, for 30 minutes at 4° C. After washes, cells were incubated with Goat anti-mouse H+L labeled secondary antibody for 30 min at 4° C.
Background: A flow cytometer gives signals particle by particle.

Series [5] concerns soluble CD39 protein released in cell culture supernatant from CHO cells expressing human CD39. As to the kind of experiment: Inhibition of ATPase activity of soluble CD39 released in CHO-huCD39 culture supernatant. Format: biochemical. The following applies: humanized variants. As for the experimental part:
as §1
Antibodies were tested for capacity to inhibit the ATPase activity of soluble CD39 protein using the assays used for inhibition of the enzymatic activity of soluble CD39 as described above (Methods). […]

Series [6] in a line: Stability in reference formulation (storage, freeze thaw). It counts as physicochemical. The following applies: about 7 mg/mL, pH 6.0 histidine/sucrose/NaCl/PS80, +5° C. and +40° C., up to 1 month. As to the method: (§3) Antibodies mAb1-24 and prior art anti-CD39 antibody BY40, all produced as human IgG1 isotypes with L234A/L235E/G237A/A330S/P331S substitutions were tested for stability in the following reference formulation at a concentration of approximatively 7 mg/mL: pH 6.0; histidine buffer (10 mM); sucrose (200 mM); NaCl (50 mM); Polysorbate 80 (PS80) (0.2 g/L). The stability of the formulations was monitored in two storage conditions (at +5° C.±3° C. and at +40±3° C. For each study, 3 time points were performed: T0, T15D (15 days) and T1M (1 month). A freeze thaw (F/T) and a thermal shift stability assay (TSSA) were conducted for the format comparison. To perform F/T cycles, the samples were frozen at least 2 hours at −20° C. and thawed at least 1 hour at room temperature, the F/T cycle is repeated three times and samples are tested 24 h after the last Freeze/Thaw cycle. At each time point, the following tests were performed: • Particulate Matter (MFI) • Visual Inspection (Appearance) • Impurities (SE-HPLC) • Turbidity (400 nm) • Protein Concentration (280 nm) (performed with Nanodrop, Thermo Fisher Scientific Inc.)

Series [7] is described as follows: Aggregation temperature (thermal shift stability assay). It counts as physicochemical. The following applies: human IgG1 with L234A/L235E/G237A/A330S/P331S. As for the experimental part:
as §3

B1: mAb20: humanized I-394 variant, VH H4 (SEQ ID NO: 31), VL L1 (SEQ ID NO: 36); heavy chain SEQ ID NO: 38, light chain SEQ ID NO: 39 (antibody)
heavy: QVQLVQSGAEVKKPGASVKVSCKASGYTFTDYNMHWVRQAPGQRLEWIGYIVPLNGGSTFNQKFKGRATITVDTSARTAYMELSSLRSEDTAVYYCARGGTRFAYWGQGTLVTVSSASTKGPSVFPLAPSSKSTSGGTAALGCLVKDYFPEPVTVSWNSGALTSGVHTFPAVLQSSGLYSLSSVVTVPSSSLGTQTYICNVNHKPSNTKVDKRVEPKSCDKTHTCPPCPAPEAEGAPSVFLFPPKPKDTLMISRTPEVTCVVVDVSHEDPEVKFNWYVDGVEVHNAKTKPREEQYNSTYRVVSVLTVLHQDWLNGKEYKCKVSNKALPSSIEKTISKAKGQPREPQVYTLPPSREEMTKNQVSLTCLVKGFYPSDIAVEWESNGQPENNYKTTPPVLDSDGSFFLYSKLTVDKSRWQQGNVFSCSVMHEALHNHYTQKSLSLSPGK
light: DIVMTQSPDSLAVSLGERATINCRASESVDNFGVSFMYWFQQKPGQPPKLLIYGASNQGSGVPDRFSGSGSGTDFTLTISSLQAEDVAVYYCQQTKEVPYTFGGGTKVEIKRTVAAPSVFIFPPSDEQLKSGTASVVCLLNNFYPREAKVQWKVDNALQSGNSQESVTEQDSKDSTYSLSSTLTLSKADYEKHKVYACEVTHQGLSSPVTKSFNRGEC
B1: the “potency for inhibition of soluble CD39 relative to parental I-394” value in series [1] is recorded as “comparable to the parental I-394 antibody”. Also, the “potency at blocking CD39 enzymatic activity relative to other antibodies” value in series [2] and in series [3] was “more potent at blocking CD39 enzymatic activity compared to all other antibodies” throughout. Moreover, the “binding to Ramos cells relative to I-394” value in series [4] is recorded as “best binding”. For the same molecule, the “potency relative to parental I-394, soluble CD39 in CHO-huCD39 supernatant” value in series [5] is on record as “comparable to the parental I-394 antibody”. Further, the physicochemical stability entry in series [6] is “good physicochemical stability”. The “Aggregation temperature (TAgg)” value in series [7] was about 70 °C.

B2: mAb21: humanized I-394 variant, VH H4 (SEQ ID NO: 31), VL L1* (SEQ ID NO: 37); heavy chain SEQ ID NO: 38, light chain SEQ ID NO: 40 (antibody)
heavy: QVQLVQSGAEVKKPGASVKVSCKASGYTFTDYNMHWVRQAPGQRLEWIGYIVPLNGGSTFNQKFKGRATITVDTSARTAYMELSSLRSEDTAVYYCARGGTRFAYWGQGTLVTVSSASTKGPSVFPLAPSSKSTSGGTAALGCLVKDYFPEPVTVSWNSGALTSGVHTFPAVLQSSGLYSLSSVVTVPSSSLGTQTYICNVNHKPSNTKVDKRVEPKSCDKTHTCPPCPAPEAEGAPSVFLFPPKPKDTLMISRTPEVTCVVVDVSHEDPEVKFNWYVDGVEVHNAKTKPREEQYNSTYRVVSVLTVLHQDWLNGKEYKCKVSNKALPSSIEKTISKAKGQPREPQVYTLPPSREEMTKNQVSLTCLVKGFYPSDIAVEWESNGQPENNYKTTPPVLDSDGSFFLYSKLTVDKSRWQQGNVFSCSVMHEALHNHYTQKSLSLSPGK
light: DIVMTQSPDSLAVSLGERATINCKASESVDNFGVSFMYWFQQKPGQPPKLLIYGASNQGSGVPDRFSGSGSGTDFTLTISSLQAEDVAVYYCQQTKEVPYTFGGGTKVEIKRTVAAPSVFIFPPSDEQLKSGTASVVCLLNNFYPREAKVQWKVDNALQSGNSQESVTEQDSKDSTYSLSSTLTLSKADYEKHKVYACEVTHQGLSSPVTKSFNRGEC
In the case of B2, in series [1], the “potency for inhibition of soluble CD39 relative to parental I-394” value is “comparable to the parental I-394 antibody”. The “potency at blocking CD39 enzymatic activity relative to other antibodies” value in series [2] and in series [3] was “more potent at blocking CD39 enzymatic activity compared to all other antibodies” each time. In addition, the “binding to Ramos cells relative to I-394” value in series [4] was “best binding”. The “potency relative to parental I-394, soluble CD39 in CHO-huCD39 supernatant” value in series [5] is “comparable to the parental I-394 antibody”. The physicochemical stability entry in series [6] is recorded as “good physicochemical stability”. In addition, in series [7], the “Aggregation temperature (TAgg)” value was about 70 °C.
